US20210008161A1 (CRISPR THERAPEUTICS, published 2021)

Molecular target: p53-binding protein 1 (53BP1) (human, UniProt Q12888 1-1972)
Test: cell-based or functional assay

Sequence of p53-binding protein 1 (53BP1) (Q12888 whole entry): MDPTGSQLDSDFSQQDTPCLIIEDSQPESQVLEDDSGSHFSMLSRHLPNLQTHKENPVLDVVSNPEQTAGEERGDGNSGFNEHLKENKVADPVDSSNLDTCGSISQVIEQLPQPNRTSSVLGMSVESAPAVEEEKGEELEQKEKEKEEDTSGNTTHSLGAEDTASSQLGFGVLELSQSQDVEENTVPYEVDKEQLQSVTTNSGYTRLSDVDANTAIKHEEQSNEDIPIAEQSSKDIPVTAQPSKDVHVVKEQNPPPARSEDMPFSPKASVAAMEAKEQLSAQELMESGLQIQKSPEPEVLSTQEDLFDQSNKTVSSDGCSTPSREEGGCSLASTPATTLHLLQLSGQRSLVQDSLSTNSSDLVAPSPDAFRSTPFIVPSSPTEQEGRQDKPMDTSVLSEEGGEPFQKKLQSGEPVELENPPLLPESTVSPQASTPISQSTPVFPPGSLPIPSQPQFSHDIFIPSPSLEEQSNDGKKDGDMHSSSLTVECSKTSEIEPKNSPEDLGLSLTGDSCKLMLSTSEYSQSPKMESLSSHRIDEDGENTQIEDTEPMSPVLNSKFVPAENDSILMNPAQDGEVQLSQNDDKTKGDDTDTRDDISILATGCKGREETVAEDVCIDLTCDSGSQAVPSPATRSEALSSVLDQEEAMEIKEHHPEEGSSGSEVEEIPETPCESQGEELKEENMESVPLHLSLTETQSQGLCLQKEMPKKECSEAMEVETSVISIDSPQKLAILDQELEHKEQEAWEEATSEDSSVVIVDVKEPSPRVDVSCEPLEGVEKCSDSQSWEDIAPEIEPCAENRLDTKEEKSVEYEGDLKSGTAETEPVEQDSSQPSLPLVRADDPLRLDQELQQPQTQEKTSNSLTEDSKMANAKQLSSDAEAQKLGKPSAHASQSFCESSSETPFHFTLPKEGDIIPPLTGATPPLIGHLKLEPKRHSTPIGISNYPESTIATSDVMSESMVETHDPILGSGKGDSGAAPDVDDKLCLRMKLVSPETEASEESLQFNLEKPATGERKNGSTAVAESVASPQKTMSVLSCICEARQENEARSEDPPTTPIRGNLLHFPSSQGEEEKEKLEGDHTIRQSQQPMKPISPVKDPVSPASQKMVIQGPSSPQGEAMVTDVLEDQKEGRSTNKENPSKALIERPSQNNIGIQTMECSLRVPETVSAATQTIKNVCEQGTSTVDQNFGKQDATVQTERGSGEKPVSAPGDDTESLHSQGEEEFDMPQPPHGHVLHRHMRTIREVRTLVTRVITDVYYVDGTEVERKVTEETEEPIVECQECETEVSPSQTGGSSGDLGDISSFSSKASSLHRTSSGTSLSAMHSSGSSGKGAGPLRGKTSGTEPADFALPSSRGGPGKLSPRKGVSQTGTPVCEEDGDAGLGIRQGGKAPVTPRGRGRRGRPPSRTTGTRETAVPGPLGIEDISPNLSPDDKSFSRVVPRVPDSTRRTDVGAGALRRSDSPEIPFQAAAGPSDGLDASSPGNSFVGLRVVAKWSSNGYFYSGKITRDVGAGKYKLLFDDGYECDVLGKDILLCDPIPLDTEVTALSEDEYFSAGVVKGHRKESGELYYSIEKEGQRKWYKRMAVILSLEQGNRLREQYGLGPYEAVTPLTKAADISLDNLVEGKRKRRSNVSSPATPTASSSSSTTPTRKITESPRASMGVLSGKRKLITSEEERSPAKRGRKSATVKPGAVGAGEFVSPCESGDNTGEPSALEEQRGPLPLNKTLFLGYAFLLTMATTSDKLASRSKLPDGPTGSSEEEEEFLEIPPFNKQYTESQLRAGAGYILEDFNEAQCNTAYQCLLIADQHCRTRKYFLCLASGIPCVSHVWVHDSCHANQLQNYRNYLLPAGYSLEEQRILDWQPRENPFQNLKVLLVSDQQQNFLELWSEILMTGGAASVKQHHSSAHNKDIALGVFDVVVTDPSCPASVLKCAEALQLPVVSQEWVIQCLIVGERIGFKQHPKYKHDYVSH

B1: i53 polypeptide (polypeptide inhibitor of 53BP1) (designed binder)
chain: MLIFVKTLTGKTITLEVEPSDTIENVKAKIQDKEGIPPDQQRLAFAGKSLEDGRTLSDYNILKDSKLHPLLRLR
Q: Which “HDR efficiency (GFP insertion at the HBB locus, CD34-expressing LT-HSPCs, GFP fluorescence)” value does the source give for B1 here?
A: ~1.3 fold

Q: What about the “INDEL frequency at the HBB locus relative to RNP+AAV (CD34-expressing LT-HSPCs, TIDE analysis)” value of the same binder?
A: 1.7 fold

Q: And the “fold increase in HDR at the HBB locus over RNP+AAV alone (CD34-expressing LT-HSPCs, NGS assay)” value?
A: 1.4 fold

Q: What about the “fold increase in HDR efficiency over RNP+AAV alone (LT-HSPCs mobilised with Mozobil+GCSF)” value of the same binder?
A: ~1.5 fold
